3 molecules from paper PMC11819540, “A new method for the reproducible development of aptamers (Neomers)” can be followed below.

First the molecules themselves.
B1: IL-6-6449 (ssDNA)
DNA: TGTGTATAAGTCGCGAGGTTTGAATGCGAACCATCGGCGCCAACAAAACATTCAAACAGAAATCTACTAGTCAC
modifications: thiol

Sequence of Interleukin 6 (IL-6) (P05231 30-212): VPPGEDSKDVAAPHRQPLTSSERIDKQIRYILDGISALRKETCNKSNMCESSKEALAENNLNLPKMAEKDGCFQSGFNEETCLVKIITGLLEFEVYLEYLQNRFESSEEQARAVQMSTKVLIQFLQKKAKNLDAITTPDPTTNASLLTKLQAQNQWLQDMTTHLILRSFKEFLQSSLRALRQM

The data set addresses Interleukin 6 (IL-6) (Homo sapiens, UniProt P05231 30-212). As to the kind of experiment: SPRi; SPRi running buffer: 400 mM 6-aminohexanoic acid, 2 mM TETA, 100 mM NaCl, pH 5.7 ± 0.1, 25 °C; aptamers immobilized on gold, protein in flow at 50 µL/min. Conditions: protein: commercial.
CAAGAGGGTTGAATTGCAACCATCGGC (ssDNA, thiol) [IL-6-7326.1] gave a dissociation constant (Kd) of 27 nM. To GTCCTGAGGTGTGAATACAAACCATCGG (ssDNA, thiol) [IL-6-4202.1] belongs 73.2 nM; to B1, 32.1 nM.
